Experiments:
[1] = target: T1, gH/gL/UL128/UL130/UL131A pentamer complex expressed from MVA-PC in BHK-21 cells (human cytomegalovirus, UniProt P12824 24-743; P16832 31-278; P16837 28-171; P16772 1-214; F5HET4 19-129); assay: FC competition, MVA-PC BHK-21; unlabelled row Ab; competitor: biotinylated 21F6
T1 construct: whole, on cells

[2] = target: T1, gH/gL/UL128/UL130/UL131A pentamer …; assay: FC competition, MVA-PC BHK-21; unlabelled row Ab; competitor: biotinylated 18F10
[3] = target: T2, UL130/UL131A co-expressed from MVA in BHK-21 cells (human cytomegalovirus, UniProt P16772 1-214; F5HET4 19-129); assay: intracellular FC, MVA-infected BHK-21
T2 construct: whole, on cells

[4] = target: T3, UL131A expressed from MVA in BHK-21 cells (human cytomegalovirus, UniProt F5HET4 19-129); assay: intracellular FC, MVA-infected BHK-21
T3 construct: whole, on cells

[5] = target: T4, gH/gL/UL130/UL131A co-expressed from MVA in BHK-21 cells (human cytomegalovirus, UniProt P12824 24-743; P16832 31-278; P16772 1-214; F5HET4 19-129); assay: intracellular FC, MVA-infected BHK-21
T4 construct: whole, on cells

[6] = target: T5, gH/gL co-expressed from MVA in BHK-21 cells (human cytomegalovirus, UniProt P12824 24-743; P16832 31-278); assay: intracellular FC, MVA-infected BHK-21
T5 construct: whole, on cells

[7] = target: T6, UL130 expressed from MVA in BHK-21 cells (human cytomegalovirus, UniProt P16772 1-214); assay: intracellular FC, MVA-infected BHK-21
T6 construct: whole, on cells

[8] = target: T7, gH/gL/UL131A co-expressed from MVA in BHK-21 cells (human cytomegalovirus, UniProt P12824 24-743; P16832 31-278; F5HET4 19-129); assay: intracellular FC, MVA-infected BHK-21
T7 construct: whole, on cells

[9] = target: T8, gH expressed from MVA in BHK-21 cells (human cytomegalovirus, UniProt P12824 24-743); assay: intracellular FC, MVA-infected BHK-21
T8 construct: whole, on cells

[10] = target: T9, gH/gL/UL130 co-expressed from MVA in BHK-21 cells (human cytomegalovirus, UniProt P12824 24-743; P16832 31-278; P16772 1-214); assay: intracellular FC, MVA-infected BHK-21
T9 construct: whole, on cells

[11] = target: gH/gL/UL128/UL130/UL131A pentamer complex (PC) of HCMV strain TB40/E virus (human cytomegalovirus strain TB40/E); assay: cell-based or functional assay
[12] = target: gH/gL/UL128/UL130/UL131A pentamer complex (PC) of HCMV strain TR virus (human cytomegalovirus strain TR); assay: cell-based or functional assay
[13] = target: T1, gH/gL/UL128/UL130/UL131A pentamer …; assay: FC competition, MVA-PC BHK-21; unlabelled row Ab; competitor: biotinylated 54E11
[14] = target: T1, gH/gL/UL128/UL130/UL131A pentamer …; assay: FC competition, MVA-PC BHK-21; unlabelled row Ab; competitor: biotinylated 12E2
[15] = target: T1, gH/gL/UL128/UL130/UL131A pentamer …; assay: FC, biotinylated NAb titrated on MVA-PC-infected BHK-21 (cell surface PC)
[16] = target: T1, gH/gL/UL128/UL130/UL131A pentamer …; assay: FC competition, MVA-PC BHK-21; unlabelled row Ab; competitor: biotinylated 13B5
[17] = target: T10, KLH-K16CS; assay: ELISA with KLH-coupled peptides (FIG. 11A)
T10 peptide: KHKRLDVSRAKMGYMC

[18] = target: T11, KLH-K14CS; assay: ELISA with KLH-coupled peptides (FIG. 11A)
T11 peptide: KRLDVSRAKMGYMC

[19] = target: T12, KLH-K15M (human cytomegalovirus); assay: ELISA with KLH-coupled peptides (FIG. 11A)
T12 peptide: KHKRLDVCRAKMGYM

[20] = target: T1, gH/gL/UL128/UL130/UL131A pentamer …; assay: FC competition, MVA-PC BHK-21; unlabelled row Ab; competitor: biotinylated 1B2

B1: 13B5 (antibody, V domains shown)
VH: QVTLKESGPGILKPSQTLSLTCSFSGFSLTTSGLGVGWIRQPSGKGLEWLAHIWWDDDKYFNPSLRNQLTISKDTSRNQVFLEITSVTTADTATYYCVRSLYDYDEGYYFDSWGQGTTLTVSS
VL: EIVMIQSPATLSVNPGDRVSLSCRASQSISDYLHWYQQKSHESPRLLIKYASQSISGIPSRFSGSGSGSDFTLSINSVEPEDVGVYYCQNGHTFPPTFGGGTKLEIK
notes: also called NAb 13B5; 1365
[1]
  Binding Inhibition (%): 0%
[2]
  Binding Inhibition (%): 0%
[3]
  binding result: no binding
[4]
  binding result: no binding
[5]
  binding result: no binding
[6]
  binding result: no binding
[7]
  binding result: no binding
[8]
  binding result: no binding
[9]
  binding result: no binding
[10]
  binding result: no binding
[11]
  IC50, inhibition of TB40/E cell-to-cell spread in ARPE-19: 22 µg/mL
  IC50, neutralization of TB40/E infection of ARPE-19: 0.015 µg/mL
  IC50, neutralization of TB40/E infection of CTB: 0.0998 µg/mL
  IC50, neutralization of TB40/E infection of HUVEC: 0.012 µg/mL
  IC50, neutralization of TB40/E infection of MRC-5: > 25 µg/mL
[12]
  IC50, inhibition of TR cell-to-cell spread in ARPE-19: 21 µg/mL
  IC50, neutralization of TR infection of ARPE-19: 0.0199 µg/mL
  IC50, neutralization of TR infection of HUVEC: 0.0077 µg/mL
  IC50, neutralization of TR infection of MRC-5: > 25 µg/mL
[13]
  Binding Inhibition (%): 0%
[14]
  Binding Inhibition (%): 0%
[15]
  EC50: 0.68 nM
[16]
  Binding Inhibition (%): 100%
[17]
  binding result: binds
[18]
  binding result: binds
[19]
  binding result: binds
[20]
  Binding Inhibition (%): 0%

— patent publication US20180230200A1 (CITY OF HOPE, published 2018)
